What was measured:
[1] = biological target: HtSH (soluble NAD+-reducing [NiFe]-hydrogenase, HoxFUYH) (Hydrogenophilus thermoluteolus, UniProt A0A077L6X8); test: fluorometric FMN determination in purified protein; type: binding; conditions: bound cofactor content of purified enzyme
[2] = biological target: HoxFU module of HtSH (Hydrogenophilus thermoluteolus TH-1T) (Hydrogenophilus thermoluteolus TH-1T); test: co-purification
purified protein [3] = substrate: NC(=O)c1ccc[n+]([C@@H]2O[C@H](COP(=O)(O)OP(=O)(O)OC[C@H]3O[C@@H](n4cnc5c(N)ncnc54)[C@H](O)[C@@H]3O)[C@@H](O)[C@H]2O)c1; test: purified protein; conditions: H2 as electron donor, 50 °C, kcat at pH 6.5
purified protein [4] = substrate: NC(=O)C1=CN([C@@H]2O[C@H](COP(=O)(O)OP(=O)(O)OC[C@H]3O[C@@H](n4cnc5c(N)ncnc54)[C@H](O)[C@@H]3O)[C@@H](O)[C@H]2O)C=CC1; test: purified protein; conditions: benzyl viologen as electron acceptor, 50 °C

Sequence of HtSH (soluble NAD+-reducing [NiFe]-hydrogenase, HoxFUYH) (A0A077L885 1-242 partner, one chain of several): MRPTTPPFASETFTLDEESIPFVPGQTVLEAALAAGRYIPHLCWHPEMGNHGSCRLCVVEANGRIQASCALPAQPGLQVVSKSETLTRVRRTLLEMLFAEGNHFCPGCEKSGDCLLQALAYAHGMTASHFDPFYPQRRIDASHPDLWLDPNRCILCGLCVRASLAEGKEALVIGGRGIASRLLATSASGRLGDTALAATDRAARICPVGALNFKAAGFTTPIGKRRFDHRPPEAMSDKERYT
Sequence of HtSH (soluble NAD+-reducing [NiFe]-hydrogenase, HoxFUYH) (A0A077L7R5 1-189 partner, one chain of several): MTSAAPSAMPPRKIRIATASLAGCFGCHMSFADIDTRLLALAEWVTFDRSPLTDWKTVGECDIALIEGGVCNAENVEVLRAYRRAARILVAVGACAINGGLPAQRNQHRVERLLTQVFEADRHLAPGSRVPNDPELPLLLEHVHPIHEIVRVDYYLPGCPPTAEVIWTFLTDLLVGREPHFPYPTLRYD
Sequence of HtSH (soluble NAD+-reducing [NiFe]-hydrogenase, HoxFUYH) (A0A077LAI5 1-468 partner, one chain of several): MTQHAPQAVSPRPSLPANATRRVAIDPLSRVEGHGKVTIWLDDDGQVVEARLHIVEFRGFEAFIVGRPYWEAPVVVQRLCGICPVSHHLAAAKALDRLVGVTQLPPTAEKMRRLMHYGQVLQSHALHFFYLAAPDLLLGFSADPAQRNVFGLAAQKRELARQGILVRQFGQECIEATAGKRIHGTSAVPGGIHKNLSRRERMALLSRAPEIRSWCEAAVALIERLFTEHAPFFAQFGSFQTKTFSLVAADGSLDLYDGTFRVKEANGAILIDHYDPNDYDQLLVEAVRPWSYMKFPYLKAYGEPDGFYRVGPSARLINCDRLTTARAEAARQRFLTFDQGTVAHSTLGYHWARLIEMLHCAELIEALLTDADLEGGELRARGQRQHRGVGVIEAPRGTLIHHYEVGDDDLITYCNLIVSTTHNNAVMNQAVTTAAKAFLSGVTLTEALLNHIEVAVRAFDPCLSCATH

For `Cc1cc2nc3c(=O)[nH]c(=O)nc-3n(C[C@H](O)[C@H](O)[C@H](O)COP(=O)(O)O)c2cc1C` [FMN], the “FMN per SH tetramer” value [1] was 1.07 mol/mol.

Molecule “HoxYH module of HtSH (Hydrogenophilus thermoluteolus TH-1T) (from UniProt A0A077L7R5 1-189) (complex)” has a stoichiometry N [2] of 1.

B1: HtSH (soluble NAD+-reducing [NiFe]-hydrogenase, HoxFUYH) (Hydrogenophilus thermoluteolus) (protein)
chain: MTTERQRTAPGLLAALHQARSRFGRPLDAQALAELSTAFSLPPGEIAATASFYHFFQTPPARYQIHFVDHVVDHHAGVAALCNHLCAAFAIQPGQRTADARLFVGWTACAGLSDQAPAALINGRPMPRLDAARIDALIEKIQAQIPMDQWPTEWFAVTNAIHRHGPLLTWLDTTPAEAVFEHPTAHDPDAILQAVTDAGLRGRGGAGFPTATKWRFCRENADPERFLICNADEGEPGTFKDRVLLTRYPEHLFAGMILAARAIGADKAILYLRYEYQYLLPQLEAARERIASAQATVPQAERVTLEIALGAGAYVCGEESALIESLEGKPGRPRVRPPYPVTQGYLGHPTVVNNVETLVAVAAIVGNGAAWWRALGTPDSSGPKLFCVSGDVAQPGLYEFPYGVALGDVVTAARPLGTRYAVQVSGPSGTLLPATPEQLARPLAFEALPCNGTVMVFDVRRDPVAIVHHFARFFAHESCGFCTPCRVGTQLIAKTFEKIAAGYATRFDLERLAPALEAMRLASNCGFGLSAGNPVRDLIAHFRQQLEAQLQPHDFIPAFSLDAELAATRRLTGRDDPHAHLAQFEQPEVTR
Work on B1 yielded a Km (purified protein [3]) of 469 µM and a Km (purified protein [4]) of 1200 µM.

Reference: article PMC7187929 (Biochimica et biophysica acta. Bioenergetics, 2017)
